Values quoted from earlier work, collected in PMC12112028.
Where two headings read alike, the source gives them in different places.

Assays:
KISS1R (Homo sapiens) [1] = molecular target: KISS1R (Homo sapiens) (UniProt Q969F8)
[2] = molecular target: KISS1R (Rattus norvegicus) (UniProt Q924U1)
KISS1R (Homo sapiens) [3] = molecular target: KISS1R (Homo sapiens) (UniProt Q969F8); remark: listed apart in the source
[4] = molecular target: KISS1R (Rattus norvegicus) (UniProt Q924U1); remark: listed apart in the source
KISS1R (Homo sapiens) [5] = molecular target: KISS1R (Homo sapiens) (UniProt Q969F8); remark: listed apart in the source
[6] = molecular target: KISS1R (Rattus norvegicus) (UniProt Q924U1); assay: competitive binding assay
KISS1R (Homo sapiens) [7] = molecular target: KISS1R (Homo sapiens) (UniProt Q969F8); assay: competitive binding assay

Sequence of UniProt Q969F8 (Q969F8 whole entry): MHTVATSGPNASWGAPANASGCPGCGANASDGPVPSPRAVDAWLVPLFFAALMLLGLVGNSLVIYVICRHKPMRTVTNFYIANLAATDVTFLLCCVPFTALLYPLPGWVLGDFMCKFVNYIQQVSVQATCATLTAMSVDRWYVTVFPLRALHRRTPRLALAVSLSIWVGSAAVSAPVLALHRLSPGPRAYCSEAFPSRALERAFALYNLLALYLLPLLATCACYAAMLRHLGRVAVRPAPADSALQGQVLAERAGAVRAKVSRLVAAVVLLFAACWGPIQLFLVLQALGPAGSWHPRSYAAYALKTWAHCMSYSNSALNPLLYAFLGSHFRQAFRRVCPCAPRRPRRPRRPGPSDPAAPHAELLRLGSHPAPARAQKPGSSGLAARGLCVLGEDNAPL
Sequence of UniProt Q924U1 (Q924U1 whole entry): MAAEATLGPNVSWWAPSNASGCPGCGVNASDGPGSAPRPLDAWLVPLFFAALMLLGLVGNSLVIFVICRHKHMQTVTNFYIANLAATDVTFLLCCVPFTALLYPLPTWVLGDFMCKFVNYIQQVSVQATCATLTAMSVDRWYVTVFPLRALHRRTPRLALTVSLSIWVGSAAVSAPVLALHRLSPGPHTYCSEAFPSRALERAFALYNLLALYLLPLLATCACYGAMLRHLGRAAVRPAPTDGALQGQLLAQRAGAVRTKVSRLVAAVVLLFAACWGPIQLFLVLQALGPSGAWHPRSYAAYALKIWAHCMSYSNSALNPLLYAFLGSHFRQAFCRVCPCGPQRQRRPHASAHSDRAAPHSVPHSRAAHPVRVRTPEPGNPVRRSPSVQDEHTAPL

Kd (KISS1R (Homo sapiens) [1]) [nM] | Kd [2] [nM] | Ki (KISS1R (Homo sapiens) [3]) [nM] | Ki [4] [nM] | Ki (KISS1R (Homo sapiens) [5]) [nM] | Ki [6] [nM] | Ki (KISS1R (Homo sapiens) [7]) [nM] | Substance
1.9 | 1 | 2.33 | 1.59 |  |  |  | KP-10 (from UniProt Q15726)
 |  |  |  | 4.23 | 2.08 |  | KP-13 (from UniProt Q15726)
 |  |  |  |  | 2.04 | 1.65 | KP-14 (from UniProt Q15726)
 |  |  |  |  | 1.81 | 1.45 | KP-54 (from UniProt Q15726)
